These results are taken from the supplement of paper PMC7877785.

This series is described as follows: self-splicing fitness, log relative to wild type (ln ratio); higher = more splicing; Tetrahymena group I intron in knt gene, E. coli kanamycin selection, DiMSum; sequences stand for … in CUCUCU…GGAGGGAAAAGUUAUCAGGCAUGCACCUGGUAGCUAGUCUUUAAACCAAUAGAUUGCAUCGGUUUAAAAGGCAAGACCGUCAAAUUGCGGGAAAGGGGUCAACAGCCGUUCAGUACCAAGUCUCAGGGGAAACUUUGAGAUGGCCUUGCAAAGGGUAUGGUAAUAAGCUGACGGACAUGGUCCUAACCACGCAGCCAAGUCCUAAGUCAACAGAUCUUCUGUUGAUAUGGAUGCAGUUCACAGACUAAAUGUCGGUCGGGGAAGAUGUAUUCUUCUCAUAAGAUAUAGUCGGACCUCUCCUUAAUGGGAGCUAGCGGAUGAAGUGAUGCAACACUGGAGCCGCUGGGAACUAAUUUGUAUGCGAAAGUAUAUUGAUUAGUUUUGGAGUACUCGUGGUCG
The method, boiled down:
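Pooled colonies went to amplicon sequencing on an Illumina HiSeq 2500 after six replicate transformations. The plates were LB agar with 100 μg/mL carbenicillin, 50 μM IPTG and 0.2% rhamnose, with or without 25 μg/mL kanamycin, incubated overnight at 37°C or 30°C. The E. coli BL21(DE3) library had all eight P1ex-region intron nucleotides randomised, the intron placed in the knt kanamycin-resistance gene on pET-22b(+). DiMSum fitness is the error-weighted combination of replicate fold changes, kanamycin against none, normalised to wild type.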

± gives the uncertainty stated by the source.

As for GUCCAGCAAUAUUACGGGUC, the “self-splicing fitness (ln)” value is -1.73 ± 0.13 (30 °C) and -1.7 ± 0.16 (37 °C). For GUCCAGCAAUAUUACGGUAA the same measures were -0.283 ± 0.086 and 0.647 ± 0.079.

Take GUCCAGCAAUAUUACGUCCA: the “self-splicing fitness (ln)” value by setting is: (30 °C) -1.12 ± 0.077; (37 °C) -0.579 ± 0.079. For GUCCAGCAAUAUUACGUGUG the same measures were -1.14 ± 0.064 and -0.529 ± 0.068.

In the case of GUCCAGCAAUAUUACGUUAG, the “self-splicing fitness (ln)” value was -3.15 ± 0.11 (30 °C) and -1.19 ± 0.095 (37 °C). On the same counts, the results for GUCCAGCAAUAUUACGUUAU are -0.827 ± 0.058 and 0.329 ± 0.07. Take GUCGAGCAAUAUUACGAGGG: under “37 °C”, the “self-splicing fitness (ln)” value is -1.04 ± 0.21. Regarding GUCGAGCAAUAUUACGAUGA, the “self-splicing fitness (ln)” value (30 °C) is -1.6 ± 0.15 and the “self-splicing fitness (ln)” value (37 °C) is -0.827 ± 0.14. For GUCGAGCAAUAUUACGCAGG, the “self-splicing fitness (ln)” value (37 °C) was -3.05 ± 0.38. With GUCGAGCAAUAUUACGCCCC, the “self-splicing fitness (ln)” value (30 °C) was -1.19 ± 0.37 and the “self-splicing fitness (ln)” value (37 °C) is -1.01 ± 0.31. For GUCGAGCAAUAUUACGCCGG, the “self-splicing fitness (ln)” value (37 °C) was -1.99 ± 0.41.

On to GUCGAGCAAUAUUACGCCGU, for which the “self-splicing fitness (ln)” value (30 °C) is -1.32 ± 0.3 and the “self-splicing fitness (ln)” value (37 °C) is -0.299 ± 0.38.

Take GUCGAGCAAUAUUACGCCUC: the “self-splicing fitness (ln)” value by setting is: (30 °C) -1.51 ± 0.23; (37 °C) -0.868 ± 0.33. On to GUCGAGCAAUAUUACGGGCA, for which the “self-splicing fitness (ln)” value is -2.65 ± 0.4 (30 °C) and -0.9 ± 0.18 (37 °C). On the same counts, the results for GUCGAGCAAUAUUACGGGCU are -2.06 ± 0.23 and -1.53 ± 0.28. For GUCGAGCAAUAUUACGGGGA, the “self-splicing fitness (ln)” value (30 °C) is -2.91 ± 0.3 and the “self-splicing fitness (ln)” value (37 °C) is -1.39 ± 0.24. For GUCGAGCAAUAUUACGGGUC, where the note is “30 °C”, the “self-splicing fitness (ln)” value was -2.68 ± 0.39.

In the case of GUCGAGCAAUAUUACGGUGU, the “self-splicing fitness (ln)” value is -1.98 ± 0.087 (30 °C) and -1.14 ± 0.11 (37 °C). For GUCGAGCAAUAUUACGUACA the same measures were -1.02 ± 0.15 and -0.719 ± 0.17. Turning to GUCGAGCAAUAUUACGUAGG, the “self-splicing fitness (ln)” value is -3.66 ± 0.18 (30 °C) and -2.08 ± 0.16 (37 °C).

In the case of GUCGAGCAAUAUUACGUAUG, the “self-splicing fitness (ln)” value reads like this: (30 °C) -3.13 ± 0.32; (37 °C) -0.147 ± 0.21. For GUCGAGCAAUAUUACGUAUU the same measures were -1.52 ± 0.29 and -0.948 ± 0.23. For GUCGAGCAAUAUUACGUGAG the same measures were -0.54 ± 0.076 and -0.266 ± 0.096. For GUCUAGCAAUAUUACGAAUA the same measures were -1.87 ± 0.17 and -0.494 ± 0.14.

On to GUCUAGCAAUAUUACGAGAC, for which the “self-splicing fitness (ln)” value reads like this: (30 °C) -3.7 ± 0.24; (37 °C) -2.34 ± 0.3. For GUCUAGCAAUAUUACGAUCU the same measures were -1.57 ± 0.12 and -0.315 ± 0.14.

In the case of GUCUAGCAAUAUUACGCUAC, the “self-splicing fitness (ln)” value (30 °C) is -2.41 ± 0.47 and the “self-splicing fitness (ln)” value (37 °C) was -2.57 ± 0.33.

Take GUCUAGCAAUAUUACGGACG: the “self-splicing fitness (ln)” value was -0.561 ± 0.15 (30 °C) and -0.711 ± 0.2 (37 °C). For GUCUAGCAAUAUUACGGAUA the same measures were -1.26 ± 0.099 and -0.0363 ± 0.11. Take GUCUAGCAAUAUUACGGCUA: where the note is “37 °C”, the “self-splicing fitness (ln)” value is -2.64 ± 0.33. Consider GUCUAGCAAUAUUACGGGAG, for which the “self-splicing fitness (ln)” value by setting is: (30 °C) -1.87 ± 0.17; (37 °C) -0.423 ± 0.11. In the case of GUCUAGCAAUAUUACGGGUC, the “self-splicing fitness (ln)” value reads like this: (30 °C) -2.14 ± 0.2; (37 °C) -1.67 ± 0.17.

As for GUCUAGCAAUAUUACGGGUU, the “self-splicing fitness (ln)” value reads like this: (30 °C) -1.92 ± 0.082; (37 °C) -0.234 ± 0.083. For GUCUAGCAAUAUUACGGUCA the same measures were -0.592 ± 0.11 and -0.44 ± 0.12. For GUCUAGCAAUAUUACGGUCC the same measures were -2.44 ± 0.15 and -1.18 ± 0.13. On the same counts, the results for GUCUAGCAAUAUUACGGUCU are -2.19 ± 0.17 and -0.272 ± 0.16.

For GUCUAGCAAUAUUACGUACG, the “self-splicing fitness (ln)” value is -1.29 ± 0.12 (30 °C) and -0.709 ± 0.12 (37 °C). For GUCUAGCAAUAUUACGUAUC, the “self-splicing fitness (ln)” value was -0.834 ± 0.08 (30 °C) and 0.353 ± 0.11 (37 °C). On the same counts, the results for GUCUAGCAAUAUUACGUCAA are -1.4 ± 0.067 and -0.997 ± 0.085. For GUCUAGCAAUAUUACGUCGU the same measures were -0.819 ± 0.096 and 0.377 ± 0.092.

For GUCUAGCAAUAUUACGUGAC, the “self-splicing fitness (ln)” value is -3.73 ± 0.33 (30 °C) and -0.257 ± 0.2 (37 °C). For GUCUAGCAAUAUUACGUGAG the same measures were -0.175 ± 0.075 and 0.0626 ± 0.093. On the same counts, the results for GUCUAGCAAUAUUACGUUAC are -0.99 ± 0.099 and -0.771 ± 0.096. Consider GUCUAGCAAUAUUACGUUCG, for which the “self-splicing fitness (ln)” value (30 °C) is -0.604 ± 0.18 and the “self-splicing fitness (ln)” value (37 °C) was -0.859 ± 0.17. On the same counts, the results for GUGAAGCAAUAUUACGAAUC are -0.696 ± 0.14 and -0.964 ± 0.22. On the same counts, the results for GUGAAGCAAUAUUACGACAU are 0.0507 ± 0.012 and 0.246 ± 0.032. On the same counts, the results for GUGAAGCAAUAUUACGAGAA are -1.97 ± 0.13 and -0.33 ± 0.13. GUGAAGCAAUAUUACGAGCC: the “self-splicing fitness (ln)” value (37 °C) was -2.76 ± 0.48. As for GUGAAGCAAUAUUACGAGGU, the “self-splicing fitness (ln)” value is, setting by setting: (30 °C) -1.83 ± 0.29; (37 °C) -1.36 ± 0.26. Turning to GUGAAGCAAUAUUACGAGUA, the “self-splicing fitness (ln)” value is -1.84 ± 0.13 (30 °C) and -1.47 ± 0.16 (37 °C). Take GUGAAGCAAUAUUACGAGUC: the “self-splicing fitness (ln)” value (30 °C) was -2.58 ± 0.17 and the “self-splicing fitness (ln)” value (37 °C) was -0.63 ± 0.23.

Turning to GUGAAGCAAUAUUACGAUCA, the “self-splicing fitness (ln)” value (30 °C) is -0.337 ± 0.11 and the “self-splicing fitness (ln)” value (37 °C) stood at 0.465 ± 0.13. For GUGAAGCAAUAUUACGAUGU the same measures were -0.316 ± 0.064 and -0.0235 ± 0.094. For GUGAAGCAAUAUUACGAUUU the same measures were -0.586 ± 0.051 and 0.316 ± 0.091. On the same counts, the results for GUGAAGCAAUAUUACGCGUG are -0.812 ± 0.057 and -0.134 ± 0.061. With GUGAAGCAAUAUUACGCUCA, the “self-splicing fitness (ln)” value (30 °C) is -1.35 ± 0.12 and the “self-splicing fitness (ln)” value (37 °C) was -1.62 ± 0.17. Consider GUGAAGCAAUAUUACGCUGG, for which the “self-splicing fitness (ln)” value is, setting by setting: (30 °C) -1.42 ± 0.12; (37 °C) -0.76 ± 0.13. On the same counts, the results for GUGAAGCAAUAUUACGGACA are 0.209 ± 0.092 and -0.366 ± 0.1. For GUGAAGCAAUAUUACGGAGG the same measures were -2.3 ± 0.23 and -2.49 ± 0.41. Consider GUGAAGCAAUAUUACGGAUC, for which the “self-splicing fitness (ln)” value is, setting by setting: (30 °C) -1.43 ± 0.086; (37 °C) -0.286 ± 0.13. For GUGAAGCAAUAUUACGGCUG the same measures were -0.541 ± 0.082 and 0.0938 ± 0.11. On the same counts, the results for GUGAAGCAAUAUUACGGUAC are -0.508 ± 0.12 and -0.311 ± 0.15.

Regarding GUGAAGCAAUAUUACGGUUG, the “self-splicing fitness (ln)” value is -1.71 ± 0.076 (30 °C) and -1.13 ± 0.11 (37 °C). On to GUGAAGCAAUAUUACGUAAA, for which the “self-splicing fitness (ln)” value reads like this: (30 °C) -1.41 ± 0.086; (37 °C) -1.51 ± 0.12. On the same counts, the results for GUGAAGCAAUAUUACGUAAC are -1.99 ± 0.26 and -1.23 ± 0.31.

For GUGAAGCAAUAUUACGUAGG, the “self-splicing fitness (ln)” value (30 °C) is -2.29 ± 0.14 and the “self-splicing fitness (ln)” value (37 °C) is -0.218 ± 0.15. On the same counts, the results for GUGAAGCAAUAUUACGUCGG are -0.498 ± 0.077 and 0.15 ± 0.1.

As for GUGAAGCAAUAUUACGUGAC, the “self-splicing fitness (ln)” value (30 °C) is -2.77 ± 0.23 and the “self-splicing fitness (ln)” value (37 °C) was -2.18 ± 0.27. With GUGAAGCAAUAUUACGUUAC, the “self-splicing fitness (ln)” value is, setting by setting: (30 °C) -2.88 ± 0.11; (37 °C) -1.52 ± 0.13.

Take GUGAAGCAAUAUUACGUUAG: the “self-splicing fitness (ln)” value (30 °C) is -1.06 ± 0.098 and the “self-splicing fitness (ln)” value (37 °C) was 0.151 ± 0.14. For GUGAAGCAAUAUUACGUUGG the same measures were -2.81 ± 0.13 and -1.65 ± 0.12.

In the case of GUGAAGCAAUAUUACGUUUG, the “self-splicing fitness (ln)” value by setting is: (30 °C) -2.25 ± 0.09; (37 °C) -1.85 ± 0.12. Take GUGCAGCAAUAUUACGACAA: the “self-splicing fitness (ln)” value was -0.582 ± 0.066 (30 °C) and -0.153 ± 0.07 (37 °C). For GUGCAGCAAUAUUACGACAC the same measures were -1.57 ± 0.25 and -0.906 ± 0.2. On the same counts, the results for GUGCAGCAAUAUUACGACAG are -2.83 ± 0.14 and -1.71 ± 0.16. Regarding GUGCAGCAAUAUUACGACUC, the “self-splicing fitness (ln)” value (30 °C) was -0.543 ± 0.13 and the “self-splicing fitness (ln)” value (37 °C) was found to be 0.542 ± 0.19. For GUGCAGCAAUAUUACGACUG the same measures were -4.5 ± 0.39 and -2.84 ± 0.28.
